Laboratory results from patent US20240100133.

System: Granzyme A wild type, recombinant human, His-tagged (GzmA-WT)
Sequence (chain, as listed by the source): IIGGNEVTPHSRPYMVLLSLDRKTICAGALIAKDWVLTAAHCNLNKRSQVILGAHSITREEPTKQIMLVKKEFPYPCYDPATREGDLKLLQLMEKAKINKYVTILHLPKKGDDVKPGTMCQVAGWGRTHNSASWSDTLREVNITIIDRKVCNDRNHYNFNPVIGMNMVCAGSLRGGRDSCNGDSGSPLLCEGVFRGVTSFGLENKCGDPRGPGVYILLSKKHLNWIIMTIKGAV

Chain of human recombinant PDIA1 (Protein Disulfide Isomerase A1, residues 18-479, N-terminal His-tag) (chain, as listed by the source): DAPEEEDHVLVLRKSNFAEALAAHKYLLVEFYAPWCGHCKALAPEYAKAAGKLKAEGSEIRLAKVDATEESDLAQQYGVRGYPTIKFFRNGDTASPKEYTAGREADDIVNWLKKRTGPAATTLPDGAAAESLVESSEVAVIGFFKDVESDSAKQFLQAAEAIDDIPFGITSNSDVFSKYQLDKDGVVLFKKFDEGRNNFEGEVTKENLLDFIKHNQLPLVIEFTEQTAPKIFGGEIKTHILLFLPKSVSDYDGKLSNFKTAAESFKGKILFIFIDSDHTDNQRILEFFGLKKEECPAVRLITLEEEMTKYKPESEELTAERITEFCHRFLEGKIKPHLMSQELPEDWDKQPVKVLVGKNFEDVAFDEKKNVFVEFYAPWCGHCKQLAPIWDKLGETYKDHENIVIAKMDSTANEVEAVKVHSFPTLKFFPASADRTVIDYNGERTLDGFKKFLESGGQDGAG

Substance: human recombinant PDIA1 (Protein Disulfide Isomerase A1, residues 18-479, N-terminal His-tag)
- conversion of GzmA homodimer into the 27 kDa monomer (silver stain and anti-GzmA western blot): they incubated GzmA-WT with PDIA1 and observed the monomeric band at 27 KDa, which was not present when heat-inactivated PDIA1 was used
